Holding throughout (assay): SPR binning
Test [1] addresses T1, hCDH6aa54-615 APPavi (human, UniProt P55285 54-615).
T1 sequence: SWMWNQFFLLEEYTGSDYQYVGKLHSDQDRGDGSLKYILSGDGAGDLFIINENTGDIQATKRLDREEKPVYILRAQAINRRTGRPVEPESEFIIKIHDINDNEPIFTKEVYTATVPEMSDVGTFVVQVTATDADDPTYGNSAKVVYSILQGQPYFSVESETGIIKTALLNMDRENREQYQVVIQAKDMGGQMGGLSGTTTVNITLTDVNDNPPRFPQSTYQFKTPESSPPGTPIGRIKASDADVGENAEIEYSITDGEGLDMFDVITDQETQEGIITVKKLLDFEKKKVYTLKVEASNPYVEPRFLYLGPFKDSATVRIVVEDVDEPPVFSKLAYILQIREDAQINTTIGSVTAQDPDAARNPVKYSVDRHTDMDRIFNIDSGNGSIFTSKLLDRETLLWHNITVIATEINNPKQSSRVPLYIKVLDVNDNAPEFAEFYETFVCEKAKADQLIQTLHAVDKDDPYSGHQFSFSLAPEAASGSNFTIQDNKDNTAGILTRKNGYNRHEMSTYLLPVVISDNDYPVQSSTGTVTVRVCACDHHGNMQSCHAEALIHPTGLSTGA

Test [2] has as its target T1, hCDH6aa54-615 APPavi. This is another data set of the same source.
For test [3], the target named is T1, hCDH6aa54-615 APPavi. The source holds these as a separate data set.
Test [4] concerns the target T1, hCDH6aa54-615 APPavi. This is another data set of the same source.
Test [5] concerns the target T1, hCDH6aa54-615 APPavi. The source holds these as a separate data set.
Test [6] deals with T1, hCDH6aa54-615 APPavi. This is another data set of the same source.
Test [7] has as its target T1, hCDH6aa54-615 APPavi. This is another data set of the same source.

Substitutions are numbered along the chain they refer to. Where two headings read alike, the source gives them in different places.

B1: NOV1126 (antibody, human IgG1, lambda, V domains shown)
VH: EVQLLESGGGLVQPGGSLRLSCAASGFTFSDHAIDWVRQAPGKGLEWVSVIAGSGSITYYADSVKGRFTISRDNSKNTLYLQMNSLRAEDTAVYYCARDTGVYREYMDVWGQGTLVTVSS
VL: SYELTQPLSVSVALGQTARITCSGDAIGTKFAHWYQQKPGQAPVLVIYYDHERPSGIPERFSGSNSGNTATLTISRAQAGDEADYYCYSRASSNLVFGGGTKLTVLG
Take B1: the “response of secondary antibody on primary antibody-CDH6 complex” value (“response of secondary antibody” below) worked out at 18.7 in the test with hCDH6aa54-615 APPavi [1]; 36.9 in the test with hCDH6aa54-615 APPavi [2]; 26.7 with hCDH6aa54-615 APPavi [3]; 61.6 with hCDH6aa54-615 APPavi [4]; 8.59 in the test with hCDH6aa54-615 APPavi [5]; 56.6 with hCDH6aa54-615 APPavi [6]. Besides, the “response of secondary antibody” value in the test with hCDH6aa54-615 APPavi [7] is 30.1.

B2: NOV1132 (antibody, human IgG1, lambda, V domains shown)
VH: QVQLQQSGPGLVKPSQTLSLTCAISGDSVSSQSAGWNWIRQSPSRGLEWLGRIYYRSKWYNDYAVSVKSRITINPDTSKNQFSLQLNSVTPEDTAVYYCAREKYTVSFYDFFDYWGQGTLVTVSS
VL: SYELTQPLSVSVALGQTARITCSGDNIGSMTAHWYQQKPGQAPVLVIYDKNERPSGIPERFSGSNSGNTATLTISRAQAGDEADYYCQSWDDSYTSVVFGGGTKLTVLG
On to B2, for which the “response of secondary antibody” value was found to be 17.9 with hCDH6aa54-615 APPavi [1]; 17.8 in the test with hCDH6aa54-615 APPavi [2]; 14.3 with hCDH6aa54-615 APPavi [3]; 33.6 with hCDH6aa54-615 APPavi [4]; 23.7 with hCDH6aa54-615 APPavi [5]; 39.3 with hCDH6aa54-615 APPavi [6]. Moreover, the “response of secondary antibody” value with hCDH6aa54-615 APPavi [7] is 1.08.

B3: NOV1127 (antibody, human IgG1, kappa, V domains shown)
VH: QVQLQQSGPGLVKPSQTLSLTCAISGDSVSSQSAAWNWIRQSPSRGLEWLGRIYYRSKWYNDYAVSVKSRITINPDTSKNQFSLQLNSVTPEDTAVYYCARERSYRDYFDYWGQGTLVTVSS
VL: DIQMTQSPSSLSASVGDRVTITCRASQGIFTYLNWYQQKPGKAPKLLIYAASTLQSGVPSRFSGSGSGTDFTLTISSLQPEDFATYYCQQYYSTSLTFGQGTKVEIKR
Regarding B3, the “response of secondary antibody” value with hCDH6aa54-615 APPavi [1] was found to be 25.4; with hCDH6aa54-615 APPavi [2] it was 30.9; in the test with hCDH6aa54-615 APPavi [3], 22.4; with hCDH6aa54-615 APPavi [4], 51.5; in the test with hCDH6aa54-615 APPavi [5], 16.5; in the test with hCDH6aa54-615 APPavi [6], 36.7. In addition, the “response of secondary antibody” value with hCDH6aa54-615 APPavi [7] stood at 17.8.

B4: NOV0719 (antibody, human IgG1, kappa, V domains shown)
VH: QVQLLESGGGLVQPGGSLRLSCAASGFTFSSHWVHWVRQAPGKGLEWVSVISYMGSSTYYADSVKGRFTISRDNSKNTLYLQMNSLRAEDTAVYYCARGSYDMAFDVWGQGTLVTVSS
VL: B3 VL with G28S, F30V, T31S, A50D, T53S, Y91S, Y92G, T94H, L96I
With B4, the “response of secondary antibody” value was 13.5 with hCDH6aa54-615 APPavi [1]; 16.1 in the test with hCDH6aa54-615 APPavi [2]; 11.1 with hCDH6aa54-615 APPavi [3]; -2.36 with hCDH6aa54-615 APPavi [4]; 25.4 in the test with hCDH6aa54-615 APPavi [5]; 46.9 in the test with hCDH6aa54-615 APPavi [6]. Besides, the “response of secondary antibody” value with hCDH6aa54-615 APPavi [7] was 20.7.
